Assay [1] concerns the target CD62P lectin domain R16E/K17E mutant.
The target in assay [2] is CD62P (P-selectin) lectin domain (residues 1–117), wild type. Put plainly: ELISA; wells coated with the CD62P lectin domain (WT, mutants, or lectin+EGF; 50 μg/ml where stated), blocked with BSA; soluble αvβ3 or αIIbβ3 (1 μg/ml) in HEPES-Tyrodes buffer with 1 mM MnCl2, 1 h, room temperature; bound integrin detected with anti-β3 mAb AV-10 and HRP anti-mouse IgG.

Four substances from PMC10130748 can be followed below.

Sequence of CD62P (P-selectin) lectin domain (residues 1–117), wild type (P16109 42-158): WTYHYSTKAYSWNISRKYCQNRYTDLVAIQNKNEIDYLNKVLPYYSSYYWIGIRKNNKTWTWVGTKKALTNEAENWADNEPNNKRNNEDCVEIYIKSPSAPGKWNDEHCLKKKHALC
Sequence of CD62P lectin domain R16E/K17E mutant (P16109 42-158 R57E/K58E): as the sequence (P16109 42-158) above, with R16E, K17E counted along it
Sequence of integrin αvβ3 on β3-CHO cells (P05106 whole entry, looked up): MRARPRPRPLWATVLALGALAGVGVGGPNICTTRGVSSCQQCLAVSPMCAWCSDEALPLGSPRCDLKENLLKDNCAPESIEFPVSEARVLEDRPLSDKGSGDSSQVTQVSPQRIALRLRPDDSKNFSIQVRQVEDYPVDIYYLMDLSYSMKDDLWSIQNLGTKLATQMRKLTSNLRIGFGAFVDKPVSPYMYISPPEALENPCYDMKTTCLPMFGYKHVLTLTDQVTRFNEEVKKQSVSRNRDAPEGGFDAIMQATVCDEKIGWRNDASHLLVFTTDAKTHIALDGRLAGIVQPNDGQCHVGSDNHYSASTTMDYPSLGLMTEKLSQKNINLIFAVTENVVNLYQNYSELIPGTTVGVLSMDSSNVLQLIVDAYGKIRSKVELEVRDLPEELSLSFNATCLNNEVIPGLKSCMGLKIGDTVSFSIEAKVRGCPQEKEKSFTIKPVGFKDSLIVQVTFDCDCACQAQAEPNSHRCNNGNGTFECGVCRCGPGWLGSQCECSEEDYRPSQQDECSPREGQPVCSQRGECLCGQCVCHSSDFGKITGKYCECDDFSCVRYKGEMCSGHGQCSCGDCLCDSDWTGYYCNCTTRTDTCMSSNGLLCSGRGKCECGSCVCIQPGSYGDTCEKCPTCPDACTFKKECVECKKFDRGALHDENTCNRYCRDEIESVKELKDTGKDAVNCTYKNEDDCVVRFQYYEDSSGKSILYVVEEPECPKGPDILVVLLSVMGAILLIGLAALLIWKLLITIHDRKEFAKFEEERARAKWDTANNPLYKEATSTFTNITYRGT

With “integrin α5β1 on parent CHO cells (receptor)”, in assay [1], the static adhesion of parent CHO cells to wells coated with the R16E/K17E lectin domain (50 μg/ml), Mg2+ buffer was 60 % reduced. In assay [1], “integrin αvβ3 on β3-CHO cells (from UniProt P05106 27-788) (receptor)” returned a static adhesion of β3-CHO cells to wells coated with the R16E/K17E lectin domain (50 μg/ml), Mg2+ buffer of 60 % reduced. For the substance “soluble recombinant integrin αIIbβ3 (from UniProt P08514 32-1039; P05106 27-718) (receptor)”, in assay [2], the fold binding relative to the combined lectin and EGF-like domains worked out at 2 fold. In the case of “soluble recombinant integrin αvβ3 (from UniProt P06756 31-1048; P05106 27-718) (receptor)”, the fold binding relative to the combined lectin and EGF-like domains in assay [2] was 2 fold.
